From the supplement of paper PMC12764529
± gives the half width of the 95% confidence interval.

assay: folding stability dG unfold from chymotrypsin proteolysis; higher = more stable
Method in brief: (§1)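 Unfolding free energy was derived, per protease or combined, by relating Bayesian-fitted K50 values from sequencing counts to a sequence-predicted unfolded-state K50 and a shared folded-state K50. The underlying digests exposed cysteine-free mini-proteins under 80 residues, in a PA-tagged cDNA display construct, to trypsin and chymotrypsin at 11 threefold-diluted concentrations and to a no-protease condition. A filter kept only designs with AlphaFold2 dimer inter-PAE above 15.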

Sequence	folding stability dG unfold [kcal/mol]
SKTYLVKVTIEYGGKTIEIEVEVETLEEALAAVRAALPPEERAQLPPDAKVTVEVYELPEVDEETGELLESA [r9_111_TrROS_Hall]	4.2 ± 0.048
SMTIELTVPSPEELLAALKALADAGIKGAKIRITVTNPDGEEQEIEVDSIEDLEALIESGPVTVRVEIEPSA [r9_589_TrROS_Hall]	2.5 ± 0.084
SAGGSAMTVEELKELFPGYPITEITDFQPVDGWYTLSIKYPNNGKKRQINVEGMPPELAKEIMELISAGGSA [r15_830_TrROS]	-0.394 ± 0.21
SMPPLGEETTLLETIELPEKLTVEIRRVTLPNGVPLIEVSKTDPSGNTTPIFRAPGNDPAALAAARAALASA [r9_1069_JUSTAS]	-0.0163 ± 0.47
SAGNAKEIAKKIKIRIREFFAERFGFPDVEIDSVTIKDVDPKNGRVRVNITWWWPNGRPWKHEIEIPVDSAG [r5_20_TrROS]	2.43 ± 0.072
SAGGSAGGSTIMFKVDSPDELIDKIKIPPGFRVEIMQTPDRYYVMIRPPPSPEQMAKREKNNGSAGGSAGGS [r12_274_TrROS]	3.16 ± 0.23
SAGGSAGGSAGMKNKNYKVYTYKINIIDPGYENTTIIVEPNPAKPKAKPITIPIIIVEPASAGGSAGGSAGG [r11_257_TrMRF]	1.03 ± 0.18
SMKPGETVRVTFKTKDGSKIEIEFKNGKPVRITVYNKNGEKVKEIEVTLDELKELAEKLGIEEIVEVEKVSA [r9_1107_TrROS_Hall]	3.44 ± 0.077
SAGGAEVDPETKVVHIRIRARSAEELLAAIEALPADEVIIEVYNEETGKTERIRLSREELRKLLEEASAGGS [r16_797_TrROS_Hall]	2.82 ± 0.018
SAGGMVITIPTTTSSIEEAIEAVKKKVEEEGYKVTEIKDIKVSTDPKTGKINVTATVIVEKLPKEEKSAGGS [r16_155_JUSTAS]	2.85 ± 0.22
SSSSEVKVERYPDSYLVTITIREGDKEVGTLSYPLNGSLTVEEVLEEVQKRYPDLPVSFSTSVPVPPPAPSA [r9_364_JUSTAS]	3.88 ± 0.073
SAGGSAGGMVIEFPKEKVEEVKKELLDAGKPDWVIVTDPNDPDIIKIMPKSLAEEKGWKYTPLLSAGGSAGG [r6_710_JUSTAS]	2.06 ± 0.043
SAGGSAGGSAKKIKIKIKVYNPETKEVLELEIEVSEEEAEELAKKLAEELEKKGYKIEEVEISAGGSAGGSA [r18_3_TrROS_Hall]	3.47 ± 0.084
SAGMARIIPNPPVIEVVRKDGSKLVIPPEEIEELRAALEAKGGPYTPEEIAEAIRKLFPDYEVSIVPASAGG [r19_46_TrMRF]	-0.0899 ± 0.17
SMVEIKVEPEKSIIKATLTLKDKTVEEIKQLAKEYFEKLGYKIKVEVKEVKTFEDSVTLKFEIKVPKGLVSA [r9_347_JUSTAS]	2.27 ± 0.11
SAGGSQRFRITELVVPEDDGNLFIRVRGPNGKSMFMPASDIEKARKNGKEIEFPFPNGQPFEVEIISAGGSA [r2_301_TrROS]	-0.461 ± 0.66
SAGGSAGGSSMKVEVTVEPVDPARGLYRVTITLYDPNSDTPLKTVPVLAESPEEIEAAILELLSAGGSAGGS [r12_26_JUSTAS]	2.91 ± 0.05
SAGMISSVSSEPSTNTTTATIPETGKTITYNPETGTLTVTPPTGNPSVIPVETPEEAERAMEEVIAELSSAG [r5_467_JUSTAS]	0.228 ± 0.038
SAMIEILSIEEFTRPDGKKLYKITLKTPDPEKVLEKLIELGVKPEIDPNNPDILIAVFPYEKIEEILKESAG [r14_777_TrMRF]	5.05 ± 0.23
SAGGSPPDKWVTLPFTMRYPDNGLEVEVNIVINPDDGKIQVEMEVYDNGKPKQEVPATIPADEIKLSAGGSA [r2_188_TrROS]	0.594 ± 0.23
SAGGPDWKTVEVEIQVKDPEDRPEAIEEAEEWAQELAENNPGYKIKGVDVEIWPHNGWYQIRIPITVESAGG [r13_305_TrROS]	1.01 ± 0.21

Sequence	folding stability dG unfold [kcal/mol]
SAKFRVTEIHPNGNNFEIRIERYDPNGEKKKLPIPVNADNMQIDEVDGDKITIYFPNNGREITLPLEDLSAG [r14_947_TrROS]	-0.114 ± 0.42
SAGGSAGGGPDPSLPPPEVIEVVLPPDTLFRPPGGGYLSPEEVVELAKELEEREGIKATVTIRPSAGGSAGG [r6_162_JUSTAS]	0.588 ± 0.095
SAGNIKIEDIEPNDDYYTLVIKAPENGRTIMIQYNPNNNRIPIMIFPPGGVRTIPIPMNDIEDFLKEILSAG [r5_769_TrROS]	0.903 ± 0.049
SAGGSAGGSPKPIPIKIDEVWPNPDNGKDYIVKIEFPDGKKHTFTSPEDIRKLPGFDVEVYELSAGGSAGGS [r20_192_TrROS]	0.783 ± 0.27
SAGMETVTVEVDGATITFVKNEDGTVTAIVTYPNGEVEIYNADGELIRRERLPNGLVVFEFTKEELEKLSAG [r5_457_TrROS_Hall]	2.09 ± 0.068
SAGGSAGGSAGGKVVKFTRPDGKPVDAKKILSYDPDKPKLYVLVEDEGPVELREVDADKDSAGGSAGGSAGG [r7_236_TrMRF]	0.379 ± 0.32
SAGGSASNIKTEEKEYPDGKVVVKYSSDPNITYVYYYPPGGLELVETLDSNGNVISKKLVPKGKLISAGGSA [r15_419_JUSTAS]	0.959 ± 0.097
SAGGSAGGSAGGSFKIKDIEVNPDALKKGNFIQIRIENGWVIHINPNGEIEVVELPPDASAGGSAGGSAGGS [r4_373_TrROS]	1.59 ± 0.072
SAGGSAGGSAMSVVVKYTVLLTDPVTGKTTVVPVTATLPVSDGTAKTIEEIVAEHPNYEILESAGGSAGGSA [r18_267_JUSTAS]	1.3 ± 0.026
SAGGSAGGSAGGSPNWVWILITVKITFPIYKYDPDGKPLEPIEITIEFTVLIRIPPGDFSAGGSAGGSAGGS [r4_425_TrROS]	5.34 ± 0.18
SAMKIEIIEEKEGEIIIKIEATKEEVEELAEELKKKFPGVEVEVEYDKETKKVYIRIKFKKKPSEEELKSAG [r14_600_TrROS_Hall]	3.9 ± 0.33
SAGGSAGGSAPPDEGQKWVPVTFPIEFPLPDGNKVKIPIDFWYPKEDGKPIAMQIEWWAKNSAGGSAGGSAG [r3_484_TrROS]	1.42 ± 0.22
SAGGDPVRIFIMSGNGIFPIEIPLDPGEKVEFEMKFNGQEVTITITPGDGEIEIEMPPGFNIMALEPSAGGS [r16_761_TrROS]	2.05 ± 0.038
SAGGSKLKNLKSKPFPITFENGGKVTLNVVNIPKSSKPVVNITVIEPNSGKKKTFTVPLEEAKNLLSAGGSA [r2_366_TrMRF]	1.16 ± 0.12
SAGGSAGGSAGPLKIKKLELRKLPDGFVEMTAEFEGPENYTVRLIVRKDDPNKLVLEVFPSAGGSAGGSAGG [r11_618_TrROS_Hall]	2.98 ± 0.057
SAGGSAGGSAGGPLPGKPPLRLKLFTLTVRTRTYRKTEDGTWEEVEESEAEITVLVLEPVSAGGSAGGSAGG [r7_506_TrROS_Hall]	4.99 ± 0.17
SAGGSAGGSKPIVAPVSVEDLTLEGLKALVDSHPEGEVPIFVTRSDGKPLVITVLPDGELSLDSAGGSAGGS [r12_1054_TrMRF]	-1.49 ± 0.31
SAGGSAPRIRVHFWNPNTGQWHHIPVERLKKAIDKNPPGEELEFPIPGYPVKVQVEPDDGTIWIRMSAGGSA [r15_350_TrROS]	1.17 ± 0.25
SAGGSGRQMVRNIVRHALDQQQQHGKPIDKIYIFGPPNMRKEIKKELEEEGLPPGVKITIVPAEDMQSAGGS [r16_164_TrROS]	0.101 ± 0.51
PPPDVPVETETKTSTSTLPDGSRLTTTTTTTRAPNGYYYDTTSVTTTVAPDGTVTTTSTSTTKGPLPAALLS [r1_129_JUSTAS]	1.51 ± 0.072
SAGGSAGGKPKKVKIKIEITYNKETGVVKIKIEVEVDGKTYTIEIEVKLKPGQTIEELLKKLLESAGGSAGG [r6_20_TrROS_Hall]	4.75 ± 0.34

assay: folding stability dG unfold (combined trypsin and chymotrypsin); higher = more stable
Method in brief: as §1

Sequence	folding stability dG unfold [kcal/mol]
SKTYLVKVTIEYGGKTIEIEVEVETLEEALAAVRAALPPEERAQLPPDAKVTVEVYELPEVDEETGELLESA [r9_111_TrROS_Hall]	3.84 ± 0.059
SMTIELTVPSPEELLAALKALADAGIKGAKIRITVTNPDGEEQEIEVDSIEDLEALIESGPVTVRVEIEPSA [r9_589_TrROS_Hall]	3.05 ± 0.14
SAGGSAMTVEELKELFPGYPITEITDFQPVDGWYTLSIKYPNNGKKRQINVEGMPPELAKEIMELISAGGSA [r15_830_TrROS]	0.0457 ± 0.098
SMPPLGEETTLLETIELPEKLTVEIRRVTLPNGVPLIEVSKTDPSGNTTPIFRAPGNDPAALAAARAALASA [r9_1069_JUSTAS]	0.262 ± 0.21
SAGNAKEIAKKIKIRIREFFAERFGFPDVEIDSVTIKDVDPKNGRVRVNITWWWPNGRPWKHEIEIPVDSAG [r5_20_TrROS]	2.43 ± 0.11
SAGGSAGGSTIMFKVDSPDELIDKIKIPPGFRVEIMQTPDRYYVMIRPPPSPEQMAKREKNNGSAGGSAGGS [r12_274_TrROS]	3.26 ± 0.41
SAGGSAGGSAGMKNKNYKVYTYKINIIDPGYENTTIIVEPNPAKPKAKPITIPIIIVEPASAGGSAGGSAGG [r11_257_TrMRF]	0.797 ± 0.21
SMKPGETVRVTFKTKDGSKIEIEFKNGKPVRITVYNKNGEKVKEIEVTLDELKELAEKLGIEEIVEVEKVSA [r9_1107_TrROS_Hall]	3.26 ± 0.35
SAGGAEVDPETKVVHIRIRARSAEELLAAIEALPADEVIIEVYNEETGKTERIRLSREELRKLLEEASAGGS [r16_797_TrROS_Hall]	2.54 ± 0.031
SAGGMVITIPTTTSSIEEAIEAVKKKVEEEGYKVTEIKDIKVSTDPKTGKINVTATVIVEKLPKEEKSAGGS [r16_155_JUSTAS]	2.55 ± 0.3
SSSSEVKVERYPDSYLVTITIREGDKEVGTLSYPLNGSLTVEEVLEEVQKRYPDLPVSFSTSVPVPPPAPSA [r9_364_JUSTAS]	3.8 ± 0.13
SAGGSAGGMVIEFPKEKVEEVKKELLDAGKPDWVIVTDPNDPDIIKIMPKSLAEEKGWKYTPLLSAGGSAGG [r6_710_JUSTAS]	2.09 ± 0.16
SAGGSAGGSAKKIKIKIKVYNPETKEVLELEIEVSEEEAEELAKKLAEELEKKGYKIEEVEISAGGSAGGSA [r18_3_TrROS_Hall]	3.85 ± 0.12
SAGMARIIPNPPVIEVVRKDGSKLVIPPEEIEELRAALEAKGGPYTPEEIAEAIRKLFPDYEVSIVPASAGG [r19_46_TrMRF]	-0.109 ± 0.22
SMVEIKVEPEKSIIKATLTLKDKTVEEIKQLAKEYFEKLGYKIKVEVKEVKTFEDSVTLKFEIKVPKGLVSA [r9_347_JUSTAS]	2.45 ± 0.26
SAGGSQRFRITELVVPEDDGNLFIRVRGPNGKSMFMPASDIEKARKNGKEIEFPFPNGQPFEVEIISAGGSA [r2_301_TrROS]	-0.411 ± 0.33
SAGGSAGGSSMKVEVTVEPVDPARGLYRVTITLYDPNSDTPLKTVPVLAESPEEIEAAILELLSAGGSAGGS [r12_26_JUSTAS]	2.67 ± 0.12
SAGMISSVSSEPSTNTTTATIPETGKTITYNPETGTLTVTPPTGNPSVIPVETPEEAERAMEEVIAELSSAG [r5_467_JUSTAS]	0.816 ± 0.079
SAMIEILSIEEFTRPDGKKLYKITLKTPDPEKVLEKLIELGVKPEIDPNNPDILIAVFPYEKIEEILKESAG [r14_777_TrMRF]	4.77 ± 0.31
SAGGSPPDKWVTLPFTMRYPDNGLEVEVNIVINPDDGKIQVEMEVYDNGKPKQEVPATIPADEIKLSAGGSA [r2_188_TrROS]	0.699 ± 0.13
SAGGPDWKTVEVEIQVKDPEDRPEAIEEAEEWAQELAENNPGYKIKGVDVEIWPHNGWYQIRIPITVESAGG [r13_305_TrROS]	0.79 ± 0.19
